Measured values: publication doi:10.1101/2024.04.30.591854 (2024)
Where a chain is given by its changes, count along the chain named.

B1: KIR2DL1-Fc fusion protein (Fc fusion)
chain: HEGVHRKPSLLAHPGRLVKSEETVILQCWSDVMFEHFLLHREGMFNDTLRLIGEHHDGVSKANFSISRMTQDLAGTYRCYGSVTHSPYQVSAPSDPLDIVIIGLYEKPSLSAQLGPTVLAGENVTLSCSSRSSYDMYHLSREGEAHERRLPAGPKVNGTFQADFPLGPATHGGTYRCFGSFHDSPYEWSKSSDPLLVSVTGNPSNSWPSPTEPSSKTGNPRHLH
B2: KIR2DS1-Fc fusion protein (Fc fusion)
chain: B1 chain with T70K, V90L, L114P, P154T, D163N, H182R, K216E

Molecular target: HLA-Cw4-β2m complex refolded with peptide (human | )
Experiment: SPR

Binder | Kd [µM]
B1 | 6
B2 | 23
